Data published in patent publication US20220267458A1 (Innovent, published 2022).

Key:
human GITR-His [1] = molecular target: T1, human GITR-His (human, UniProt Q9Y5U5 26-161); assay: PE-ELISA, crude nanobody on coated GITR-His, anti-HA detection
T1 construct: Bought from Acro biosystems; also called GITR-His (Acro biosystems); antigen GITR-His
T1 sequence: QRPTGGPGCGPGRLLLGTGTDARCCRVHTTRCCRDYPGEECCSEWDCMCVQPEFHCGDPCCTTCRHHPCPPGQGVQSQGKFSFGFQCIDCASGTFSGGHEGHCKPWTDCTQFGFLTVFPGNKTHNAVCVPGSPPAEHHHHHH
Description: (§1) (2) crude antibodies were obtained by a conventional osmotic shock method, and the crude antibodies were transferred to an enzyme-labeled plate (Nunc) coated with the antigen GITR-His overnight, and incubated at room temperature for 1 h;
(3) unbound antibodies were washed off with PBST, then mouse anti-HA tag antibody (SinoBiological) was added, and placed at room temperature for 1 h;

human GITR-His [2] = molecular target: T1, human GITR-His; assay: PE-ELISA, sample OD against reference OD
Description: as §1

human GITR-His [3] = molecular target: T1, human GITR-His; assay: ForteBio BLI, antibody on AHQ tip, human GITR-His 100 nM in solution, 1:1 model
Description: (2) Experimental procedure: 100 μl of SD buffer and antibodies (hcIgG-02, hcIgG-03, hcIgG-04, hcIgG-07, hcIgG-09, hcIgG-10, hcIgG-16 and hcIgG-20, control antibody), GITR-His (Acro biosystems) were added to a 96-well half-volume black polystyrene microplate. The plate was arranged according to the positions of the samples, the position of the sensor was selected, and the operation procedures were set as: Baseline, Loading ˜1 nm, Baseline, Association and Dissociation, each running for a time depending on the binding and dissociation rates of the sample, at a rotation speed of 400 rpm and a temperature of 30° C.
(3) A 1:1 binding model was adopted for kinetic analysis.

B1: Nb-14 (VHH)
VHH: QVQLQEFGGGSVQAGGSLRLSCVASGFTFSNYCMGWFRQDPGKEREAVARIFVDGSTRYADAVKGRFTISKDNAKNTLYVQINSLKPEDTAMYYCTTPFPWTLCVDGPGAYKYWGQGTQVTVSS
notes: Tested as crude extract from E. coli (osmotic shock)
- Sample OD (+) (human GITR-His [1]): 0.46 OD (405 nm)
- Ratio (+/-) (human GITR-His [2]): 4

B2: Nb-15 (VHH)
VHH: QVQLQESGGGSVQAGGSLRLSCVVFGNIFRNYCMAWFRQAPGKEREGVVVIYTGGGSTYYADSVKGRFTISQDNAKNTVYLQMNSLKHEDTAMYYCAADQTTRYSSDYVNVGPCDMDSWGKGTQVTVSS
notes: as for B1
- Sample OD (+) (human GITR-His [1]): 1.25 OD (405 nm)
- Ratio (+/-) (human GITR-His [2]): 5.04

B3: Nb-02 (VHH)
VHH: QVQLQESGGGSVQAGGSLRLSCAASRDTYTRYFMGWFRQTPGKEGEGVAVLLPGGDYTFYADSVKGRFTITQDSAKNTVYLQMNSLKPEDTAMYYCAADVTVGSRWSQASNYNYWGQGTQVTVSS
notes: as for B1
- Sample OD (+) (human GITR-His [1]): 1.43 OD (405 nm)
- Ratio (+/-) (human GITR-His [2]): 20.7

B4: Nb-12 (VHH)
VHH: QVQLQESGGGSVQAGGSLRLSCAASRDTYTRYFMGWFRQTPGKEPEGVAVLLPGGAYTFYADSVKGRFTITQDSAKNTVYLQMNSLKPEDTAMYYCAADVTVGSRWSQASNYNYWGQGTQVTVSS
notes: as for B1
- Sample OD (+) (human GITR-His [1]): 0.444 OD (405 nm)
- Ratio (+/-) (human GITR-His [2]): 4.53

B5: Nb-03 (VHH)
VHH: QVQLQESGGGSVQAGGSLRLSCAASGYTYSGYCMGWFRQAPGKEHEGVASIVSGLGRPYYADSVKGRFTISQDNAKNTVYLQMNSLKPEDTAMYYCAAEWATKLCSEIPATEWDYWGQGTQVTVSS
notes: as for B1
- Sample OD (+) (human GITR-His [1]): 0.786 OD (405 nm)
- Ratio (+/-) (human GITR-His [2]): 11.7

B6: Nb-19 (VHH)
VHH: QVQLQESGGGSVQAGGSLRLSCAASGFTYSNYCMAWFRQAPGKEREGVAAIDSDGSTSYADSVKGRFTISQDNAKNTLYLQMNSLKPEDTAMYYCAAGNKKPYQLCNTDSRRYYHWGQGTQVTVSS
notes: as for B1
- Sample OD (+) (human GITR-His [1]): 1.32 OD (405 nm)
- Ratio (+/-) (human GITR-His [2]): 18.5

B7: Nb-22 (VHH)
VHH: QVQLQESGGGSVQAGGSLRLSCAASGYTFTTAYMGWFRQAPGKEREGVAAIDSDGRTEYADAVKGRFTISKDNAKNTLYLQMNSLKPEDTAMYYCAADKDDWLLLHGRSLFPSAFAYWGQGTQVTVSS
notes: as for B1
- Sample OD (+) (human GITR-His [1]): 0.606 OD (405 nm)
- Ratio (+/-) (human GITR-His [2]): 10

B8: Nb-07 (VHH)
VHH: QVQLQESGGGLVQAGGSLKLSCTVSGFAFGSSHMSWVRRAPGKGLEWVSTIHSGGGFGDYANSVQGRFTISRDVAKNTLYLQMNSLKPEDTAIYYCALATDWRKPPGQGTQVTVSS
notes: as for B1
- Sample OD (+) (human GITR-His [1]): 2.35 OD (405 nm)
- Ratio (+/-) (human GITR-His [2]): 32.6

B9: Nb-10 (VHH)
VHH: QVQLQESGGGLVQPGGSLRLSCAASGFAFGSSHMSWVRRAPGKGLEWVSTIHSGGGFGDYANSVQGRFTISRDVAKNTLYLQMNSLKPEDTAIYYCALATDWRKPPGQGTQVTVSS
notes: as for B1
- Sample OD (+) (human GITR-His [1]): 2.27 OD (405 nm)
- Ratio (+/-) (human GITR-His [2]): 29.9

B10: Nb-18 (VHH)
VHH: QVQLQESGGGSVQTGGSLRLSCAASGLTSTTKYMGWFRQAPGKEREGVAGIYISSGATYYDDSVKGRFTISQDNAKNTVYLHINSLEPDDTAMYYCAASVLSVFRPLSSNQYHYWGQGTQVTVSS
notes: as for B1
- Sample OD (+) (human GITR-His [1]): 1.01 OD (405 nm)
- Ratio (+/-) (human GITR-His [2]): 9.8

B11: Nb-01 (VHH)
VHH: QVQLQESGGGLVQPGGSLRLSCTASGLTFDDYAMGWFRQAPGKGREGVSLITWSGSSTYYADSVKGRFTVSRDTATNTLVLQMNSLKPEDTAMYYCAADPRSGGYYSSPPPPAVYRYLRFWGQGTQVTVSS
notes: as for B1
- Sample OD (+) (human GITR-His [1]): 0.467 OD (405 nm)
- Ratio (+/-) (human GITR-His [2]): 6.23

B12: Nb-09 (VHH)
VHH: QVQLQESGGGLVQPGGSLRLSCGASGFTFSSTAMWWFRQAPGKGLEWVSSITSDVSGTYYADSVQGRFTISRDNGKNTVYLQMNSLRSEDTALYYCATSCGFSGGTWSCKYRGQGTQVTVSS
notes: as for B1
- Sample OD (+) (human GITR-His [1]): 1.45 OD (405 nm)
- Ratio (+/-) (human GITR-His [2]): 23.1

B13: Nb-06 (VHH)
VHH: QVQLQESGGGSVQAGGSLRLSCAASGYAYTRNCMGWFRQAPGKEREEVATINLGGGSTYYADSVKGRFAISQDNAKNTVYLQMNNLKPEDTAMYYCAAIAQYGGSLCSNFGWYNLWGQGTQVTVSS
notes: as for B1
- Sample OD (+) (human GITR-His [1]): 0.314 OD (405 nm)
- Ratio (+/-) (human GITR-His [2]): 3.31

B14: Nb-13 (VHH)
VHH: QVQLQESGGGSVQAGGSLRLSCTASSNTGRMGWFRQAPGKEREGVTAVDNFGRTNYAKYVKGRFTISKDNAKNTLYLQMNSLKPEDTAMYYCAADPWGRGAALTPNEYIYWGQGTQVTVSS
notes: as for B1
- Sample OD (+) (human GITR-His [1]): 0.263 OD (405 nm)
- Ratio (+/-) (human GITR-His [2]): 3.29

B15: Nb-05 (VHH)
VHH: QVQLQESGGGLVQPGGSLRLSCAASGFTFSNKVMSWVRQAPGKGFEWVSSIARGGDWTTYADSVEGRFTISRDNAKNTLYLQLNSLKTEDTAMYYCAQAENWKTPPGQGTQVTVSS
notes: as for B1
- Sample OD (+) (human GITR-His [1]): 1.41 OD (405 nm)
- Ratio (+/-) (human GITR-His [2]): 21.5

B16: Nb-17 (VHH)
VHH: QVQLQESGGGSAQAGGSLRLSCAASRYTSSSNAMGWFRQAPGKQREWVAGSDTGAGITCNAASVKGRFTISQDVAKNTVYLQMNSLKPEDTAVYYCAADWFRGAFCSGDADFRYWGQGTQVTVSS
notes: as for B1
- Sample OD (+) (human GITR-His [1]): 1.04 OD (405 nm)
- Ratio (+/-) (human GITR-His [2]): 15.1

B17: Nb-21 (VHH)
VHH: QVQLQESGGGSVQAGGSLRLSCRTSGYTNNLKSMAWFRQAPGKEREAVASIHNNGGPTYDYYAESVKGRFAISQDNAKNTLYLQMSSAKPEDTAVYYCAADNRFLGSGSWRLPSLYNYWGQGTQVTVSS
notes: as for B1
- Sample OD (+) (human GITR-His [1]): 0.522 OD (405 nm)
- Ratio (+/-) (human GITR-His [2]): 7.55

B18: Nb-16 (VHH)
VHH: QVQLQESGGGSVQAGGSLRLSCAASGYTYNKYSWGWFRQAPGKEREGVAGIDSDGSTSYADSVKGRFTISKDNTKNTLYLQMNSLKPEDTAMYYCAASDWVSAIQALGVLAVRPYEYWGQGTQVTVSS
notes: as for B1
- Sample OD (+) (human GITR-His [1]): 1.67 OD (405 nm)
- Ratio (+/-) (human GITR-His [2]): 20.7

B19: Nb-20 (VHH)
VHH: QVQLQESGGGSVQAGGSLRLSCASSGYSRTSRWMAWFRQAPGKEREGVAAIYTGGSSTLYANSMADRVTISQDNAKNTVYLRMNNLKPEDTAMYYCAADKLAGDFWLVDRWRAWGQGTQVTVSS
notes: as for B1
- Sample OD (+) (human GITR-His [1]): 1.41 OD (405 nm)
- Ratio (+/-) (human GITR-His [2]): 12.2

B20: Nb-04 (VHH)
VHH: QVQLQESGGGSVQAGGSLRLSCTASGFTVDDSGMGWYRQAPGNECELVSTISSDGSTYYADSVKGRFTISQDNAKNTVYLQMNSLKPEDTAVYYCAAPRVGVGWVRPCDYEYNYWGQGTQVTVSS
notes: as for B1
- Sample OD (+) (human GITR-His [1]): 1.63 OD (405 nm)
- Ratio (+/-) (human GITR-His [2]): 22

B21: hcIgG-04 (antibody, V domains shown)
VH: QVQLQESGGGSVQAGGSLRLSCTASGFTVDDSGMGWYRQAPGNECELVSTISSDGSTYYADSVKGRFTISQDNAKNTVYLQMNSLKPEDTAVYYCAAPRVGVGWVRPCDYEYNYWGQGTQVTVSS
notes: also called heavy-chain antibody of Nb-04
- Kd (human GITR-His [3]): 7.92 nM
- koff (human GITR-His [3]): 0.00202 s⁻¹
- kon (human GITR-His [3]): 256000 M⁻¹ s⁻¹

B22: Nb-11 (VHH)
VHH: QVQLQESGGGSVQTGGSLRLSCTASGFTFDAADMGWYRQAPGNECELVSIISSDGSTYYADSVKGRFTISQDNAKNTVYLQMNSLKPEDTAVYYCAAPRVGVGWVRPCDYEYNYWGQGTQVTVSS
notes: as for B1
- Sample OD (+) (human GITR-His [1]): 0.552 OD (405 nm)
- Ratio (+/-) (human GITR-His [2]): 7.78

B23: Nb-08 (VHH)
VHH: QVQLQESGGGSVQAGGSLRLSCAASGYTSSRKYIGWFRQAPGKQREWVAGIDTGAGGTCTIASVQGRFTISQDVAKNTLYLQIDSLKPEDTAVYYCAADWVRGGFCSGDADFRYWGQGTQVTVSS
notes: as for B1
- Sample OD (+) (human GITR-His [1]): 1.71 OD (405 nm)
- Ratio (+/-) (human GITR-His [2]): 23
